From PMC3708844 (2013)

B1: SHI1 fused with the N-terminal portion of the luciferase [Arabidopsis thaliana] / FRY2/CPL1 fused with the C-terminal part of the luciferase [Arabidopsis thaliana] (parent complex)
chain 1: MERSRSKRNYHYDQDYDGDSMPRSKPRYNNNYHFGGGGGGNNRYRGGGGGGGGNGRPSKSHPETMATTTYRILCHDAKAGGVIGKSGTIIKSIRQHTGAWINVHELVPGDAERIIEISDNRRRDPDGRMPSFSPAQEALFSVHDRILESEAQFGYGGPPPEEEEDYGGVRPGGGRVVTRLVVSRMHVGCLLGKGGKIIEQMRIETKTHIRILPRESNLPRCVSLSEEIVQIVGELNAVKNALAIVSSRLRESQHRDRSNFQGRSHSPERSFAAAGDDYMPQLRRQSSDRFPRGNFRNNNFSSRQSNYAEEAPAVPVGENVYSEELVFQILCPADKIVRVVGESQGIIDLLQNEIGVDVRVSDPVAGSDEQIITISSEEAPDDPFFPAQEALLHIQTQIIDLIPDKDNLITTRLLVPSRDSICLEGKAGSVSEISRLTGTSVQILAREEIPRCASINDVVIQITGEIRAAREALVELTLLLRSHMFKELSQKETPPASTSTTGPLEGVAGVMEVASSNNTIQSREGPTSSNLNLQQVSTILPQFKEGFGSVAKAGESEHREEVPVTTSRMAVPLVTRSTLEVVLPEAVVPKLVTKSRNKLAQISEWSGASVTIVEDRPEETQNIIRISGTPEQAERAQSLLQGFILSIQEDGP
chain 2: MYSNNRVEVFHGDGRLGELEIYPSRELNQQQDDVMKQRKKKQREVMELAKMGIRISHFSQSGERCPPLAILTTISSCGLCFKLEASPSPAQESLSLFYSSCLRDNKTAVMLLGGEELHLVAMYSENIKNDRPCFWAFSVAPGIYDSCLVMLNLRCLGIVFDLDETLVVANTMRSFEDKIDGFQRRINNEMDPQRLAVIVAEMKRYQDDKNLLKQYIESDQVVENGEVIKVQSEIVPALSDNHQPLVRPLIRLQEKNIILTRINPMIRDTSVLVRMRPSWEELRSYLTAKGRKRFEVYVCTMAERDYALEMWRLLDPEGNLINTNDLLARIVCVKSGFKKSLFNVFLDGTCHPKMALVIDDRLKVWDEKDQPRVHVVPAFAPYYSPQAEAAATPVLCVARNVACGVRGGFFRDFDDSLLPRIAEISYENDAEDIPSPPDVSHYLVSEDDTSGLNGNKDPLSFDGMADTEVERRLKEAISASSAVLPAANIDPRIAAPVQFPMASASSVSVPVPVQVVQQAIQPSAMAFPSIPFQQPQQPTSIAKHLVPSEPSLQSSPAREEGEVPESELDPDTRRRLLILQHGQDTRDPAPSEPSFPQRPPVQAPPSHVQSRNGWFPVEEEMDPAQIRRAVSKEYPLDSEMIHMEKHRPRHPSFFSKIDNSTQSDRMLHENRRPPKESLRRDEQLRSNNNLPDSHPFYGEDASWNQSSSRNSDLDFLPERSVSATETSADVLHGIAIKCGAKVEYKPSLVSSTDLRFSVEAWLSNQKIGEGIGKSRREALHKAAEASIQNLADGYMRANGDPGPSHRDATPFTNENISMGNANALNNQPFARDETALPVSSRPTDPRLEGSMRHTGSITALRELCASEGLEMAFQSQRQLPSDMVHRDELHAQVEIDGRVVGEGVGSTWDEARMQAAERALSSVRSMLGQPLHKRQGSPRSFGGMSNKRLKPDFQRSLQRMPSSGRYS

Variants of: B1
Assay: split-luciferase complementation assay; co-expressed in Arabidopsis protoplasts; means ± SE (n = 3); parent: 160; read off a plot

Row | Variant | response
1 | chain 1 E389K | ~110 RLU
